Source: patent US20220187308A1 (published 2022)
Positions count from the first letter of the chain named.

T1: soluble human IL-6 receptor (human, UniProt P08887 20-357)
T1 construct: range 1-357; The stated range begins at position 1, so it includes the signal peptide; no cleavage site is stated; also called hsIL-6R
T1 sequence (looked up): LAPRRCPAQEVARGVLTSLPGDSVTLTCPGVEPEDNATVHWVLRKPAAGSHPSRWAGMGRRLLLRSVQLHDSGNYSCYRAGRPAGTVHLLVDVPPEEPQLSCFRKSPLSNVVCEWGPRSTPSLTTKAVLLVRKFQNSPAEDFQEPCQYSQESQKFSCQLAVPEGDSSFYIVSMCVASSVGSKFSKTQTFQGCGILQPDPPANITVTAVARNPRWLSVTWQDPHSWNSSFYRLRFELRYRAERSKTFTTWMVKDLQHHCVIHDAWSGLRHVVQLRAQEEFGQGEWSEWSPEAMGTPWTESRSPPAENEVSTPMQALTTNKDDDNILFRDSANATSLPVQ

T2: biotinylated human HMGB1-Avi (human, UniProt P09429 2-215, biotin added at the C-terminal Avitag sequence by biotin ligase (BirA))
T2 construct: also called biotin-labeled hHMGB1; hHMGB1-Avitag
T2 sequence: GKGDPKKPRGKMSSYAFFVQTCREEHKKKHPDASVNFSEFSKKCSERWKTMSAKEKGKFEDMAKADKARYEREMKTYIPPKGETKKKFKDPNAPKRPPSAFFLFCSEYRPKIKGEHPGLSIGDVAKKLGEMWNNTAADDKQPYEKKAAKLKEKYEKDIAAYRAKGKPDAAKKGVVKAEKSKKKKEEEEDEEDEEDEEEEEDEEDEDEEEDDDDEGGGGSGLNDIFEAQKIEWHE

T3: human HMGB1 (human, UniProt P09429 2-215)
T3 construct: Expressed in FreeStyle 293 cells and purified; analyte in the Biacore assay of step (26-5); also called hHMGB1; recombinant human HMGB1
T3 sequence: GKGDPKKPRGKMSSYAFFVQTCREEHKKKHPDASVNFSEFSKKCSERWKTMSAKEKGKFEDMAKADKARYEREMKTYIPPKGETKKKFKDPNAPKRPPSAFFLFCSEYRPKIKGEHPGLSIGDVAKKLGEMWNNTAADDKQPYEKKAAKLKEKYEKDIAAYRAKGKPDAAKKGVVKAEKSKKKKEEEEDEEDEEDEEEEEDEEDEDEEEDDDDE

B1: H54/L28-IgG1 (antibody, V domains shown)
VH: QVQLQESGPGLVKPSETLSLTCAVSGYSISDDQAWSWVRQPPGEGLEWIGYISYSGITNYNPSLKGRVTISRDTSKNQFSLKLSSVTAADTAAYYCARSLARTTAMDYWGEGTLVTVSS
VL: DIQMTQSPSSLSASVGDSVTITCQASQDISSYLNWYQQKPGKAPELLIYYGSELHSGVPSRFSGSGSGTDFTFTISSLEAEDAATYYCQQGNSLPYTFGQGTKVEIER
notes: Control anti-human IL-6 receptor antibody described in WO2009125825; also called H54/L28-IgG1 antibody
B2: 6RL #9-IgG1 (antibody, V domains shown)
VH: QVQLVQSGAEVKKPGASVKVSCKASGYTFTSYYMHWVRQAPGQGLEWMGIINPSGGSTSYAQKFQGRVTMTRDTSTSTVYMELSSLRSEDTAVYYCARDDPGGGEYYFDYWGQGTLVTVSS
VL: QSVLTQPPSVSGAPGQRVTISCTGSRSNMGAGYDVHWYQLLPGAAPKLLISHNTHRPSGVPDRFSGSKSGASASLAITGLQAEDEADYYCQSHDSSLSAVVFGGGTKLTVLS
notes: also called 6RL #9 antibody; 6RL #9-IgG1 antibody
B3: FH4-IgG1 (antibody, V domains shown)
VH: QVQLVQSGAEVKKPGSSVKVSCKASGGTFSSYAISWVRQAPGQGLEWMGGIIPIFGTANYAQKFQGRVTITADESTSTAYMELSSLRSEDTAVYYCARERDYYDSSGYYDAFDIWGQGTMVTVSS
VL: ETTVTQSPSFLSASVGDRVTITCITTTDIDDDMNWFQQEPGKAPKLLISEGNILRPGVPSRFSSSGYGTDFTLTISKLQPEDFATYYCLQSDNLPFTFGQGTKLEIKR
notes: also called FH4-IgG1 antibody
B4: HM_3_2_R_017 (antibody, human IgG1, kappa, V domains shown)
VH: QVQLQESGPGLVKPSETLSLTCSVSGGPISSSGYYWGWIRQPPGKGLEWIGTVYFNGDTYYNPSLKSRVTISVDTSKNQFSLKLNSVTAADTAVYYCAREEGYYYYYMDVWGKGTTVTVSS
VL: DIQMTQSPSSLSASVGDRVTITCRASQSINSHLNWYQQKPGKAPKLLIYGASHLQSGVPSRFSGSGSGTDFTLTISSLQPEDFATYYCQQSHSYPLTFGQGTKVEIKR
notes: From His library 1; also called HM_3_2_R_017 antibody
B5: HM_4_1_R_001 (antibody, human IgG1, kappa, V domains shown)
VH: EVQLVESGGGLVQPGGSLRLSCAASGFTFSNYEMNWVRQAPGKGLEWISYISSSGRTFSYADSVKGRFTISRDNAKNSLYLQMNSLRAEDTAVYYCARDSGYSDGWYPSWFDSWGQGTLVTVSS
VL: B4 VL with N34A, G50H, H53N, S91H, H92S, L96Y
notes: From His library 1; also called HM_4_1_R_001 antibody; HM_4_1R_001 antibody
B6: HM_3_2_R_054 (antibody, human IgG1, kappa, V domains shown)
VH: QVQLVQSGAEVKKPGSSVKVSCKASGGTFSSYAISWVRQAPGQGLEWMGGIIPIFGTANYAQKFQGRVTITADESTSTAYMELSSLRSEDTAVYYCARDNRTLTYYDFWSGYSFWDAFDIWGQGTMVTVSS
VL: B4 VL with N30H, N34A, S91R
notes: From His library 1; also called HM_3_2_R_054 antibody
B7: mIAP1B3-3_#024 (antibody, human IgG1, kappa, V domains shown)
VH: QVQLQESGPGLVKPSQTLSLTCAVSGGSISKTYSYWAWIRQHPVKGLEWIGYISYGGGTHYNPSLKSRVTISSDTSKNHFSLNLNSVTAADTAVYYCARSGFRVFGAFDIWGQGTMVTVSS
VL: B4 VL with N30R, G50D, S91H, H92Y, S93N, Y94S
notes: From His library 1; tested from the culture supernatant of 293-F cells
B8: mIAP1B3-3_#130 (antibody, human IgG1, kappa, V domains shown)
VH: QVQLQESGPGLVKPSETLSLTCTVSGGSISSSSYYWGWIRQPPGKGLEWIGSIYYSGSTYYNPSLKSRVTISVDTSKNQFSLKLSSVTAADTAVYYCARHGPSGSYYAFDIWGQGTMVTVSS
VL: B4 VL with N30S, G50K, S91R, S93H, Y94S
notes: as for B7
B9: mIAP1B3-3_#230 (antibody, human IgG1, kappa, V domains shown)
VH: QVQLQQSGPGLVKPSESLSLTCNVSGYYISSGYYWGWIRQPPGKGLEWIGSIYPSGTSHYNPSLKSRVTISLDTSKNQFSLKLSSLSAADTAVYYCARAGVIAGGPRTYAFDIWGQGTTVTVSS
VL: B4 VL with N30R, N34A, G50K, S93H, Y94S
notes: as for B7

biological target: T1, soluble human IL-6 receptor; assay: SPR (Biacore T100); ratio of the KD values at 3 µM and 2 mM CaCl2
Description: The antigen-antibody reaction was kinetically analyzed in solutions of 2 mM and 3 μM calcium ion concentrations as high-calcium ion concentration and low-calcium ion concentration conditions, respectively. Each antibody of interest was captured onto Sensor chip CM4 (GE Healthcare Bio-Sciences Corp.) with protein A (Invitrogen Corp.) immobilized thereon in an appropriate amount by the amine coupling method. Two types of buffer solutions were used as running buffers: 10 mM ACES, 150 mM NaCl, 0.05% (w/v) Tween 20, and 2 mM CaCl₂ (pH 7.4); and 10 mM ACES, 150 mM NaCl, 0.05% (w/v) Tween 20, and 3 […] CaCl₂ (pH 7.4). The human IL-6 receptors were also diluted with each of these buffers. Assay was all carried out at 37° C.

| Ca dependence (KD at 3 µM CaCl2 against KD at 2 mM CaCl2) [times] | Binder |
| --- | --- |
| ~1 | B1 |
| ≥ 120 | B2 |
| ≥ 60 | B3 |

biological target: T2, biotinylated human HMGB1-Avi; assay: phage ELISA (Fab displayed on phage) on biotin-labeled hHMGB1 on a StreptaWell plate, pH 7.6 against pH 5.5
Description: A phage-containing culture supernatant was collected by phage culture according to a conventional method (Methods Mol. Biol. (2002) 178, 133-145) from each single colony of the E. coli obtained after the third and fourth rounds of panning carried out in the step (26-2). After addition of BSA and CaCl₂) (final concentration: 4% BSA and 1.2 mM calcium ion), the phage-containing culture supernatant was subjected to ELISA by the following procedures: StreptaWell 96 microtiter plate (F. Hoffmann-La Roche Ltd.) was coated for 4 hours or longer with 100 μL of PBS containing biotin-labeled hHMGB1. Each well of the plate was washed with PBST to remove unbound antigens. Then, the well was blocked with 250 μL of 4% BSA-TBS (50 mM Tris, 300 mM NaCl, 2.5 mM CaCl₂), and 4% BSA) for 1 hour or longer. […] Each well was washed with 1.2 mM CaCl₂)/TBST (pH 7.6), and 1.2 mM CaCl₂)/TBS (pH 7.6) or 1.2 mM CaCl₂)/150 mM NaCl/50 mM MES (pH 5.5) was added thereto. The plate was left standing at 37° C. for 30 minutes for incubation. After washing with 1.2 mM CaCl₂)/TBST (pH 7.6), HRP-conjugated anti-M13 antibodies (Amersham Pharmacia Biotech Inc.) diluted with 4% BSA-TBS were added to each well. The plate was incubated for 1 hour. After washing with 1.2 mM CaCl₂)/TBST (pH 7.6), TMB single solution (Invitrogen Corp.) was added to the well. The chromogenic reaction of the solution in each well was terminated by the addition of sulfuric acid. Then, the developed color was assayed on the basis of absorbance at 450 nm.

| binding result | Binder |
| --- | --- |
| binds | B4 |
| binds | B5 |
| binds | B6 |

biological target: T3, human HMGB1; assay: SPR (Biacore T100), antibody captured via protein A/G on CM4, hHMGB1 as analyte, 25 C, 1.2 mM CaCl2, pH 7.4 against pH 5.8
Description: In order to judge the pH dependence of hHMGB1-binding activity of the antibodies HM_3_2_R_017 (heavy chain: SEQ ID NO: 131 and light chain: SEQ ID NO: 132), HM_3_2_R_054 (heavy chain: SEQ ID NO: 133 and light chain: SEQ ID NO: 134), and HM_4_1_R_001 (heavy chain: SEQ ID NO: 135 and light chain: SEQ ID NO: 136) obtained in the step (26-4), these antibodies were analyzed for their interaction with hHMGB1 using Biacore T100 (GE Healthcare Bio-Sciences Corp.). The interaction of antigen-antibody reaction was analyzed in solutions of pH 7.4 and pH 5.8 as neutral pH and acidic pH conditions, respectively. Approximately of 200 RU of each antibody of interest was captured onto Sensor chip CM4 (GE Healthcare Bio-Sciences Corp.) with protein A/G (Pierce Biotechnology Inc.) immobilized thereon in an appropriate amount by the amine coupling method. Two types of buffer solutions were used as running buffers: 20 mM ACES, 150 mM NaCl, 0.05% (w/v) Tween 20, and 1.2 mM CaCl₂) (pH 7.4); and 20 mM ACES, 150 mM NaCl, 0.05% (w/v) Tween 20, and 1.2 mM CaCl₂) (pH 5.8). hHMGB1 was also diluted with each of these buffers. Assay was all carried out at 25° C.
In the analysis on the interaction of antigen-antibody reaction using the HM_3_2_R_017 antibody, the HM_3_2_R_054 antibody, and the HM_4_1_R_001 antibody, the diluted hHMGB1 solution or a blank running buffer was injected at a flow rate of 10 μL/min for 60 seconds to […] onto the sensor chip. The HM_3_2_R_017 antibody, the HM_3_2_R_054 antibody, and the HM_4_1_R_001 antibody were interacted with hHMGB1. Then, 10 mM glycine-HCl (pH 1.5) was injected thereto at a flow rate of 30 μL/min for 30 seconds to regenerate the sensor chip.

| binding result | Binder |
| --- | --- |
| binds | B4 |
| binds | B5 |
| binds | B6 |

biological target: T4, GC-mIgA (mouse); assay: SPR (Biacore A100), antibody from culture supernatant captured via protein A/G on CM5, GC-mIgA as analyte, 25 C, 1.2 mM CaCl2, pH 7.4 against pH 5.8
T4 construct: also called recombinant mouse IgA GC-mIgA; mouse IgA
Description: The culture supernatant obtained by the above method was used to analyze GC-mIgA-binding ability using Biacore A100. Antibodies in the culture supernatant were captured onto Sensor chip CM5 (GE Healthcare Bio-Sciences Corp.) with protein A/G (Pierce Biotechnology Inc.) immobilized thereon in an appropriate amount by the amine coupling method. Two types of buffer solutions were used as running buffers: 20 mM ACES, 150 mM NaCl, 0.05% (w/v) Tween 20, and 1.2 mM CaCl₂) (pH 7.4); and 20 mM ACES, 150 mM NaCl, 0.05% (w/v) Tween 20, and 1.2 mM CaCl₂) (pH 5.8). The interaction of antigen-antibody reaction was analyzed under neutral pH and acidic pH conditions. GC-mIgA was also diluted with each of these buffers and injected at a flow rate of 10 μL/min for 60 seconds to interact the antigen with the antibodies captured on the sensor chip. Then, 10 mM glycine-HCl (pH 1.5) was injected thereto at a flow rate of 30 μL/min for 30 seconds to regenerate the sensor chip. Assay was all carried out at 25° C.

T4 sequence (light, as listed by the source): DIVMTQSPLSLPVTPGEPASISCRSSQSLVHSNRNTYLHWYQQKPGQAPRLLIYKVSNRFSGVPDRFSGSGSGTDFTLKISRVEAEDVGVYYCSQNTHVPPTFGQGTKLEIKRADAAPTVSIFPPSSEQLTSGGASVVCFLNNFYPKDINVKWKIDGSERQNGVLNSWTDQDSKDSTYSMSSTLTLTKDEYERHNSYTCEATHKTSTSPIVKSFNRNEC

| binding result | Binder |
| --- | --- |
| binds | B7 |
| binds | B8 |
| binds | B9 |
